In publication PMC3025530:

Assays:
[1] = molecular target: ADAM12-S (shorter secreted form of ADAM12), full-length (human) (UniProt O43184); assay: enzyme inhibition kinetics
[2] = molecular target: ADAM12-Cat (truncated ADAM12 protein consisting of only the pro and catalytic domains) (human) (UniProt O43184); assay: enzyme inhibition kinetics

Substance | Ki [1] | Ki [2]
N-TIMP-1[V4A] (domain or fragment) | 190 nM | –
N-TIMP-2-ΔABloop (N-TIMP-2 with the AB-loop deleted) (domain or fragment) | 28.1 nM | 2.5 nM
N-TIMP-2^TACE (S2T/A70S/V71L/TIMP-3-ABloop) (domain or fragment) | – | 0.65 nM
N-TIMP-1[T98L] (domain or fragment) | 21.7 nM | 11.2 nM
N-TIMP-2 (N-terminal domain of TIMP-2), wild-type (domain or fragment) | 69.7 nM | 5.5 nM
N-TIMP-1[TIMP-3-ABloop] (domain or fragment) | 66 nM | –
N-TIMP-1[TIMP-2-ABloop] (domain or fragment) | > 500 nM | 247 nM
N-TIMP-1[V4S] (domain or fragment) | 122 nM | –
N-TIMP-2^TACE[F34G] (domain or fragment) | 18 nM | –
N-TIMP-1^TACE (V4S/V69L/T98L/TIMP-3-ABloop) (domain or fragment) | 16.4 nM | 1.9 nM
N-TIMP-2^TACE[L100E] (domain or fragment) | 22 nM | 4.1 nM
